Literature values as cited in article PMC6457457.

Target: LC8 (Homo sapiens) (UniProt P63167)
Chain of UniProt P63167 (P63167 whole entry): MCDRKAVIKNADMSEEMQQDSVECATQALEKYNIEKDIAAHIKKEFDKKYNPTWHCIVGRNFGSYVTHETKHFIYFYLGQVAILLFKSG

## VP35 (from UniProt Q6V1Q9)
  Kd: 82.4 nM
